# Laboratory results taken from IntAct's records for PubMed 20562859.
# B1: Gamma-aminobutyric acid receptor-associated protein (Homo sapiens), O95166 (parent)
# chain: MKFVYKEEHPFEKRRSEGEKIRKKYPDRVPVIVEKAPKARIGDLDKKKYLVPSDLTVGQFYFLIRKRIHLRAEDALFFFVNNVIPPTSATMGQLYQEHHEEDFFLYIAYSDESVYGL
# partner: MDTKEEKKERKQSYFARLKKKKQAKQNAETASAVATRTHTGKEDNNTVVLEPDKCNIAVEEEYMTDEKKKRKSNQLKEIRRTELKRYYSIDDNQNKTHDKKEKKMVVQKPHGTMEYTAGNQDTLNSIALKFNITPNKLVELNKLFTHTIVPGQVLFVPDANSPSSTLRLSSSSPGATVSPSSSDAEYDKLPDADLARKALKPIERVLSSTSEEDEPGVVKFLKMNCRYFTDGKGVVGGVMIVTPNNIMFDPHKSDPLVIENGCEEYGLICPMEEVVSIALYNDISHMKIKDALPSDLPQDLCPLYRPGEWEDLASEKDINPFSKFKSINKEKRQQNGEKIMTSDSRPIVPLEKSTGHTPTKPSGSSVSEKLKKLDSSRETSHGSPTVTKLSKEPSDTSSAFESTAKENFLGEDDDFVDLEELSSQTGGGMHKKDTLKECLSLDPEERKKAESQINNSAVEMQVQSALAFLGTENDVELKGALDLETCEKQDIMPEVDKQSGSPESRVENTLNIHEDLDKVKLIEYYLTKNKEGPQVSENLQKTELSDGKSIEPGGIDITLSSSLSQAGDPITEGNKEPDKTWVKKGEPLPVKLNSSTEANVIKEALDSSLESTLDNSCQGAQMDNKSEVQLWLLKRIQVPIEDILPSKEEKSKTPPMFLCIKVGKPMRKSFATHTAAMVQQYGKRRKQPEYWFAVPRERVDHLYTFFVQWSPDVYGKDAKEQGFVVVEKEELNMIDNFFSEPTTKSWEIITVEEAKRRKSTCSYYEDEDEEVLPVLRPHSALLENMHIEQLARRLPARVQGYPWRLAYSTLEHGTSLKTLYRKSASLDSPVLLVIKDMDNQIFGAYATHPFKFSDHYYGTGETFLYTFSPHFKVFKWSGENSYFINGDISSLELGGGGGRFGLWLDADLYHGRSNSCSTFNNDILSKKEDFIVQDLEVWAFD
# B2: Gamma-aminobutyric acid receptor-associated protein (Homo sapiens), O95166 (parent)
# chain: B1 chain
# partner: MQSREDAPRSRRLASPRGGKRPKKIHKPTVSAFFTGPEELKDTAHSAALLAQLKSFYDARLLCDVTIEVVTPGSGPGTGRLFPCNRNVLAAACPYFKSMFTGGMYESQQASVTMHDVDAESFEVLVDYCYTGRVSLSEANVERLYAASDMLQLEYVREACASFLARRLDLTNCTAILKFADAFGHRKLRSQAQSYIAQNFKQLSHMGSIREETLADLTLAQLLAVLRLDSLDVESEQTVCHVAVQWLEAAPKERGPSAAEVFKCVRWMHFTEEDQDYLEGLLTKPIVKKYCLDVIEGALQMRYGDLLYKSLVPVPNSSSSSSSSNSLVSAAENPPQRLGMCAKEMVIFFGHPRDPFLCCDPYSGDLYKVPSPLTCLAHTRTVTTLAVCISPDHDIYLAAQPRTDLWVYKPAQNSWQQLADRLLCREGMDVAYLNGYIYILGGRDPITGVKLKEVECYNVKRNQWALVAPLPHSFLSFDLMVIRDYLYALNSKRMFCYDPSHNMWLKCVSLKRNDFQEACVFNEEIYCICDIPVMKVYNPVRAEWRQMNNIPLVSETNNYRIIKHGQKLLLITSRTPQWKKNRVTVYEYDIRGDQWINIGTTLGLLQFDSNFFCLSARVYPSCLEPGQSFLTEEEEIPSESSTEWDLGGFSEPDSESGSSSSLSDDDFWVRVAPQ
# B3: Gamma-aminobutyric acid receptor-associated protein (Homo sapiens), O95166 (parent)
# chain: B1 chain
# partner: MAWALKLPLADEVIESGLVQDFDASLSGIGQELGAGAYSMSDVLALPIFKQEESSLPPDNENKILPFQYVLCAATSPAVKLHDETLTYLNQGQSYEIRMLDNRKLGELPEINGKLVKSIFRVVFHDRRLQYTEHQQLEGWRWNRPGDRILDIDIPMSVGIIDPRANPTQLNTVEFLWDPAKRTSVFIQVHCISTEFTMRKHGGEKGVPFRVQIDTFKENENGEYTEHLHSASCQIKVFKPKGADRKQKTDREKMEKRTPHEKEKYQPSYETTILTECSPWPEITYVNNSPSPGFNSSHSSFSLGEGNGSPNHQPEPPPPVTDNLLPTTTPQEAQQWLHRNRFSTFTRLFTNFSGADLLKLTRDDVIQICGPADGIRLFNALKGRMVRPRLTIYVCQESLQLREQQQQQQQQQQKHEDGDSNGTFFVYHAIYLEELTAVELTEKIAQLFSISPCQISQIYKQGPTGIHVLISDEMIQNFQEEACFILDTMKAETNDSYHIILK
# B4: Gamma-aminobutyric acid receptor-associated protein (Homo sapiens), O95166 (parent)
# chain: B1 chain
# partner: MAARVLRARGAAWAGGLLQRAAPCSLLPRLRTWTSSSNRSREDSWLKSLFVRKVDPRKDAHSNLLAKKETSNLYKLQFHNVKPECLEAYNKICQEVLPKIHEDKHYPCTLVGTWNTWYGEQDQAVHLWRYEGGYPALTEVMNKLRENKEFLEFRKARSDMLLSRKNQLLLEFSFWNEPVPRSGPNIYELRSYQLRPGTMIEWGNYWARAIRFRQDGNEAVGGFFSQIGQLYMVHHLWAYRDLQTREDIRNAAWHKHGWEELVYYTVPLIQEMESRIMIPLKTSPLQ
# B5: Gamma-aminobutyric acid receptor-associated protein (Homo sapiens), O95166 (parent)
# chain: B1 chain
# partner: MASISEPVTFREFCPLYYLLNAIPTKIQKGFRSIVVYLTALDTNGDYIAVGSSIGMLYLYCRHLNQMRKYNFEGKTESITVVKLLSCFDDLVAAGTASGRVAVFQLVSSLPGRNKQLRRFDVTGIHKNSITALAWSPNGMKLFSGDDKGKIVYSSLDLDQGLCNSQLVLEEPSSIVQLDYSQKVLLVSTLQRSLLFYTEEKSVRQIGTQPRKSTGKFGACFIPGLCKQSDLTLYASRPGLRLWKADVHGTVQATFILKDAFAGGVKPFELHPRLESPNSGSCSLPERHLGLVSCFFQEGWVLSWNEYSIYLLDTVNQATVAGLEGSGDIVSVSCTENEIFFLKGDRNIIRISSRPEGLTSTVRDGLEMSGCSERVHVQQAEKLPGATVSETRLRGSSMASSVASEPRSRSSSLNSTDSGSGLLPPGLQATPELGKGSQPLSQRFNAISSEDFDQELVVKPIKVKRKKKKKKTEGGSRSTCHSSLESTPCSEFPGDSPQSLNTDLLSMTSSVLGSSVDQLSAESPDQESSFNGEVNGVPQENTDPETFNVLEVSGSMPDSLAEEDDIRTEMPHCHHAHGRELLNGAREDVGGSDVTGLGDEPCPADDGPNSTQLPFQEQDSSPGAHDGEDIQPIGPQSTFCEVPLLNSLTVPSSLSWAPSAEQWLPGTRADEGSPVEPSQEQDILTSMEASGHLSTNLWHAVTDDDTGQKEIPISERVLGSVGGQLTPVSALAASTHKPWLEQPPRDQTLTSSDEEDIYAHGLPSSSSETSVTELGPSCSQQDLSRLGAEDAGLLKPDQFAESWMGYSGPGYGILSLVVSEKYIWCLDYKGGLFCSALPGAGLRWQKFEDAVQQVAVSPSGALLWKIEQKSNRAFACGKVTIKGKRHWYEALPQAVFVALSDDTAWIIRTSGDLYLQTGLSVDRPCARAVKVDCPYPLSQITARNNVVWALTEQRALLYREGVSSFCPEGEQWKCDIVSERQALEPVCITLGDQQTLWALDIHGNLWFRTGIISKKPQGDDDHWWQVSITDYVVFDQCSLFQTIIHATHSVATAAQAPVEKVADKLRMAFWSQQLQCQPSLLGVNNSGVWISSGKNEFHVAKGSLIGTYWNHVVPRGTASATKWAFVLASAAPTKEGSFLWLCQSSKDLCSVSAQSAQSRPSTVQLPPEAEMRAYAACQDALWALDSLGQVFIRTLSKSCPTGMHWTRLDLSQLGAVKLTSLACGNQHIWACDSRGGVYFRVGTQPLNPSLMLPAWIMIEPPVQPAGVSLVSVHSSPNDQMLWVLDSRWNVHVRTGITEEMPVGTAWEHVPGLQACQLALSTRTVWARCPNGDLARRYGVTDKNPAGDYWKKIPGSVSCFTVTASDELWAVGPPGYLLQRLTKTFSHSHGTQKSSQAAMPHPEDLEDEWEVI
# Variants of: B1
# Details: with ncoa7_human NCOA7, Q8NI08
row,effect of a mutation on the interaction,Variant
1,decreasing interaction,Y49A;L50A

# Variants of: B2
# Details: with kbtb6_human KBTBD6, Q86V97
row,effect of a mutation on the interaction,Variant
1,decreasing interaction,Y49A;L50A

# Variants of: B3
# Details: with tfcp2_human TFCP2, Q12800
row,effect of a mutation on the interaction,Variant
1,increasing interaction,R71A
2,decreasing interaction,Y49A;L50A

# Variants of: B4
# Details: with nips2_human NIPSNAP2, O75323
row,effect of a mutation on the interaction,Variant
1,increasing interaction,Y49A;L50A

# Variants of: B5
# Details: with tcpr2_human TECPR2, O15040
row,effect of a mutation on the interaction,Variant
1,decreasing interaction,Y49A;L50A
